Numbered stars: 1 amine (or outer) side, 2 acyl side, 3 side chain; on linkers, the order of the positions; unused ones are H or OH. Bridge positions count the residues as written; N and C are the ends. Side chains are listed from the residue outwards. Ends that are not written are not given here. * marks the point of attachment. C20 diacid = O=C(O)CCCCCCCCCCCCCCCCCCC(=O)*; γGlu = O=C(O)[C@H](CCC(=O)[*:2])N[*:1]

The target in this experiment is T1, human calcitonin receptor (human, UniProt P30988 25-474).
T1 sequence (looked up): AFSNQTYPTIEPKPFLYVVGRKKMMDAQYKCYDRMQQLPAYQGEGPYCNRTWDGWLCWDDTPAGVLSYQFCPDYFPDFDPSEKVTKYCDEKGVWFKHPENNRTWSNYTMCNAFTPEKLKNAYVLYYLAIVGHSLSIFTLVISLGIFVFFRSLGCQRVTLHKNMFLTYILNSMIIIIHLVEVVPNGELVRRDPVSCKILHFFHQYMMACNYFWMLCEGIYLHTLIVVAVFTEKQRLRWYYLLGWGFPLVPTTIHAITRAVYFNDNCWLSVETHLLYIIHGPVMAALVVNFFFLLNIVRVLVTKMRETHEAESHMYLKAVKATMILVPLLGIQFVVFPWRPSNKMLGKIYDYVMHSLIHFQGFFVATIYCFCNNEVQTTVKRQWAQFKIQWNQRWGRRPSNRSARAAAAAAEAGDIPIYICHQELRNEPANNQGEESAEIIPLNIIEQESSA
The experiment in a line: cell-based or functional assay.

B1: N^ε1-[(4S)-4-carboxy-4-(19-carboxynonadecanoylamino)butanoyl]-[Ala14,Arg17,Pro21,Pro27,His34]-h-amylin (peptide)
peptide: K([γGlu-C20 diacid])CNTATCATQRLAAFLRHSSPNFGAIPSSTNVGHNTY-NH2
modifications: disulfide 2-7; N-terminus assumed
SMILES: CC[C@H](C)[C@H](NC(=O)[C@H](C)NC(=O)CNC(=O)[C@H](Cc1ccccc1)NC(=O)[C@H](CC(N)=O)NC(=O)[C@@H]1CCCN1C(=O)[C@H](CO)NC(=O)[C@H](CO)NC(=O)[C@H](Cc1c[nH]cn1)NC(=O)[C@H](CCCNC(=N)N)NC(=O)[C@H](CC(C)C)NC(=O)[C@H](Cc1ccccc1)NC(=O)[C@H](C)NC(=O)[C@H](C)NC(=O)[C@H](CC(C)C)NC(=O)[C@H](CCCNC(=N)N)NC(=O)[C@H](CCC(N)=O)NC(=O)[C@@H](NC(=O)[C@H](C)NC(=O)[C@@H]1CSSC[C@H](NC(=O)[C@@H](N)CCCCNC(=O)CC[C@H](NC(=O)CCCCCCCCCCCCCCCCCCC(=O)O)C(=O)O)C(=O)N[C@@H](CC(N)=O)C(=O)N[C@@H]([C@@H](C)O)C(=O)N[C@@H](C)C(=O)N[C@@H]([C@@H](C)O)C(=O)N1)[C@@H](C)O)C(=O)N1CCC[C@H]1C(=O)N[C@@H](CO)C(=O)N[C@@H](CO)C(=O)N[C@H](C(=O)N[C@@H](CC(N)=O)C(=O)N[C@H](C(=O)NCC(=O)N[C@@H](Cc1c[nH]cn1)C(=O)N[C@@H](CC(N)=O)C(=O)N[C@H](C(=O)N[C@@H](Cc1ccc(O)cc1)C(N)=O)[C@@H](C)O)C(C)C)[C@@H](C)O
notes: also called compound 93
B1: the “hCTR funct. EC50” value was found to be 1.15 nM.

B2: N^ε1-[(4S)-4-carboxy-4-(19-carboxynonadecanoylamino)butanoyl]-[Arg14,Arg17,Pro21,Pro27]-h-amylin (peptide)
peptide: K([γGlu-C20 diacid])CNTATCATQRLARFLRHSSPNFGAIPSSTNVGSNTY-NH2
modifications: disulfide 2-7; N-terminus assumed
SMILES: CC[C@H](C)[C@H](NC(=O)[C@H](C)NC(=O)CNC(=O)[C@H](Cc1ccccc1)NC(=O)[C@H](CC(N)=O)NC(=O)[C@@H]1CCCN1C(=O)[C@H](CO)NC(=O)[C@H](CO)NC(=O)[C@H](Cc1c[nH]cn1)NC(=O)[C@H](CCCNC(=N)N)NC(=O)[C@H](CC(C)C)NC(=O)[C@H](Cc1ccccc1)NC(=O)[C@H](CCCNC(=N)N)NC(=O)[C@H](C)NC(=O)[C@H](CC(C)C)NC(=O)[C@H](CCCNC(=N)N)NC(=O)[C@H](CCC(N)=O)NC(=O)[C@@H](NC(=O)[C@H](C)NC(=O)[C@@H]1CSSC[C@H](NC(=O)[C@@H](N)CCCCNC(=O)CC[C@H](NC(=O)CCCCCCCCCCCCCCCCCCC(=O)O)C(=O)O)C(=O)N[C@@H](CC(N)=O)C(=O)N[C@@H]([C@@H](C)O)C(=O)N[C@@H](C)C(=O)N[C@@H]([C@@H](C)O)C(=O)N1)[C@@H](C)O)C(=O)N1CCC[C@H]1C(=O)N[C@@H](CO)C(=O)N[C@@H](CO)C(=O)N[C@H](C(=O)N[C@@H](CC(N)=O)C(=O)N[C@H](C(=O)NCC(=O)N[C@@H](CO)C(=O)N[C@@H](CC(N)=O)C(=O)N[C@H](C(=O)N[C@@H](Cc1ccc(O)cc1)C(N)=O)[C@@H](C)O)C(C)C)[C@@H](C)O
notes: also called compound 83
Take B2: the “hCTR funct. EC50” value turned out to be 16.8 nM.

B3: N^ε1-[(4S)-4-carboxy-4-(19-carboxynonadecanoylamino)butanoyl]-[Arg14,Arg17,Pro21,Pro27,Pro31]-h-amylin (peptide)
peptide: K([γGlu-C20 diacid])CNTATCATQRLARFLRHSSPNFGAIPSSTPVGSNTY-NH2
modifications: disulfide 2-7; N-terminus assumed
SMILES: CC[C@H](C)[C@H](NC(=O)[C@H](C)NC(=O)CNC(=O)[C@H](Cc1ccccc1)NC(=O)[C@H](CC(N)=O)NC(=O)[C@@H]1CCCN1C(=O)[C@H](CO)NC(=O)[C@H](CO)NC(=O)[C@H](Cc1c[nH]cn1)NC(=O)[C@H](CCCNC(=N)N)NC(=O)[C@H](CC(C)C)NC(=O)[C@H](Cc1ccccc1)NC(=O)[C@H](CCCNC(=N)N)NC(=O)[C@H](C)NC(=O)[C@H](CC(C)C)NC(=O)[C@H](CCCNC(=N)N)NC(=O)[C@H](CCC(N)=O)NC(=O)[C@@H](NC(=O)[C@H](C)NC(=O)[C@@H]1CSSC[C@H](NC(=O)[C@@H](N)CCCCNC(=O)CC[C@H](NC(=O)CCCCCCCCCCCCCCCCCCC(=O)O)C(=O)O)C(=O)N[C@@H](CC(N)=O)C(=O)N[C@@H]([C@@H](C)O)C(=O)N[C@@H](C)C(=O)N[C@@H]([C@@H](C)O)C(=O)N1)[C@@H](C)O)C(=O)N1CCC[C@H]1C(=O)N[C@@H](CO)C(=O)N[C@@H](CO)C(=O)N[C@H](C(=O)N1CCC[C@H]1C(=O)N[C@H](C(=O)NCC(=O)N[C@@H](CO)C(=O)N[C@@H](CC(N)=O)C(=O)N[C@H](C(=O)N[C@@H](Cc1ccc(O)cc1)C(N)=O)[C@@H](C)O)C(C)C)[C@@H](C)O
notes: also called compound 63
B3: the “hCTR funct. EC50” value turned out to be 5.13 nM.

B4: N^ε1-[(4S)-4-carboxy-4-(19-carboxynonadecanoylamino)butanoyl]-[Arg17,Pro21,Pro27,His34]-h-amylin (peptide)
peptide: K([γGlu-C20 diacid])CNTATCATQRLANFLRHSSPNFGAIPSSTNVGHNTY-NH2
modifications: disulfide 2-7; N-terminus assumed
SMILES: CC[C@H](C)[C@H](NC(=O)[C@H](C)NC(=O)CNC(=O)[C@H](Cc1ccccc1)NC(=O)[C@H](CC(N)=O)NC(=O)[C@@H]1CCCN1C(=O)[C@H](CO)NC(=O)[C@H](CO)NC(=O)[C@H](Cc1c[nH]cn1)NC(=O)[C@H](CCCNC(=N)N)NC(=O)[C@H](CC(C)C)NC(=O)[C@H](Cc1ccccc1)NC(=O)[C@H](CC(N)=O)NC(=O)[C@H](C)NC(=O)[C@H](CC(C)C)NC(=O)[C@H](CCCNC(=N)N)NC(=O)[C@H](CCC(N)=O)NC(=O)[C@@H](NC(=O)[C@H](C)NC(=O)[C@@H]1CSSC[C@H](NC(=O)[C@@H](N)CCCCNC(=O)CC[C@H](NC(=O)CCCCCCCCCCCCCCCCCCC(=O)O)C(=O)O)C(=O)N[C@@H](CC(N)=O)C(=O)N[C@@H]([C@@H](C)O)C(=O)N[C@@H](C)C(=O)N[C@@H]([C@@H](C)O)C(=O)N1)[C@@H](C)O)C(=O)N1CCC[C@H]1C(=O)N[C@@H](CO)C(=O)N[C@@H](CO)C(=O)N[C@H](C(=O)N[C@@H](CC(N)=O)C(=O)N[C@H](C(=O)NCC(=O)N[C@@H](Cc1c[nH]cn1)C(=O)N[C@@H](CC(N)=O)C(=O)N[C@H](C(=O)N[C@@H](Cc1ccc(O)cc1)C(N)=O)[C@@H](C)O)C(C)C)[C@@H](C)O
notes: also called compound 77
Turning to B4, the “hCTR funct. EC50” value worked out at 5.4 nM.

B5: N^ε1-[(4S)-4-carboxy-4-(19-carboxynonadecanoylamino)butanoyl]-[Arg17,Pro21,Pro27,Arg34]-h-amylin (peptide)
peptide: K([γGlu-C20 diacid])CNTATCATQRLANFLRHSSPNFGAIPSSTNVGRNTY-NH2
modifications: disulfide 2-7; N-terminus assumed
SMILES: CC[C@H](C)[C@H](NC(=O)[C@H](C)NC(=O)CNC(=O)[C@H](Cc1ccccc1)NC(=O)[C@H](CC(N)=O)NC(=O)[C@@H]1CCCN1C(=O)[C@H](CO)NC(=O)[C@H](CO)NC(=O)[C@H](Cc1c[nH]cn1)NC(=O)[C@H](CCCNC(=N)N)NC(=O)[C@H](CC(C)C)NC(=O)[C@H](Cc1ccccc1)NC(=O)[C@H](CC(N)=O)NC(=O)[C@H](C)NC(=O)[C@H](CC(C)C)NC(=O)[C@H](CCCNC(=N)N)NC(=O)[C@H](CCC(N)=O)NC(=O)[C@@H](NC(=O)[C@H](C)NC(=O)[C@@H]1CSSC[C@H](NC(=O)[C@@H](N)CCCCNC(=O)CC[C@H](NC(=O)CCCCCCCCCCCCCCCCCCC(=O)O)C(=O)O)C(=O)N[C@@H](CC(N)=O)C(=O)N[C@@H]([C@@H](C)O)C(=O)N[C@@H](C)C(=O)N[C@@H]([C@@H](C)O)C(=O)N1)[C@@H](C)O)C(=O)N1CCC[C@H]1C(=O)N[C@@H](CO)C(=O)N[C@@H](CO)C(=O)N[C@H](C(=O)N[C@@H](CC(N)=O)C(=O)N[C@H](C(=O)NCC(=O)N[C@@H](CCCNC(=N)N)C(=O)N[C@@H](CC(N)=O)C(=O)N[C@H](C(=O)N[C@@H](Cc1ccc(O)cc1)C(N)=O)[C@@H](C)O)C(C)C)[C@@H](C)O
notes: also called compound 79
Turning to B5, the “hCTR funct. EC50” value came to 3.94 nM.

B6: N^ε1-[(4S)-4-carboxy-4-(19-carboxynonadecanoylamino)butanoyl]-[Arg14,Arg17,Pro21,Pro27,Pro34]-h-amylin (peptide)
peptide: K([γGlu-C20 diacid])CNTATCATQRLARFLRHSSPNFGAIPSSTNVGPNTY-NH2
modifications: disulfide 2-7; N-terminus assumed
SMILES: CC[C@H](C)[C@H](NC(=O)[C@H](C)NC(=O)CNC(=O)[C@H](Cc1ccccc1)NC(=O)[C@H](CC(N)=O)NC(=O)[C@@H]1CCCN1C(=O)[C@H](CO)NC(=O)[C@H](CO)NC(=O)[C@H](Cc1c[nH]cn1)NC(=O)[C@H](CCCNC(=N)N)NC(=O)[C@H](CC(C)C)NC(=O)[C@H](Cc1ccccc1)NC(=O)[C@H](CCCNC(=N)N)NC(=O)[C@H](C)NC(=O)[C@H](CC(C)C)NC(=O)[C@H](CCCNC(=N)N)NC(=O)[C@H](CCC(N)=O)NC(=O)[C@@H](NC(=O)[C@H](C)NC(=O)[C@@H]1CSSC[C@H](NC(=O)[C@@H](N)CCCCNC(=O)CC[C@H](NC(=O)CCCCCCCCCCCCCCCCCCC(=O)O)C(=O)O)C(=O)N[C@@H](CC(N)=O)C(=O)N[C@@H]([C@@H](C)O)C(=O)N[C@@H](C)C(=O)N[C@@H]([C@@H](C)O)C(=O)N1)[C@@H](C)O)C(=O)N1CCC[C@H]1C(=O)N[C@@H](CO)C(=O)N[C@@H](CO)C(=O)N[C@H](C(=O)N[C@@H](CC(N)=O)C(=O)N[C@H](C(=O)NCC(=O)N1CCC[C@H]1C(=O)N[C@@H](CC(N)=O)C(=O)N[C@H](C(=O)N[C@@H](Cc1ccc(O)cc1)C(N)=O)[C@@H](C)O)C(C)C)[C@@H](C)O
notes: also called compound 65
Consider B6, for which the “hCTR funct. EC50” value is 9.33 nM.

These data come from US20140087995A1 (published 2014).
